Source: article PMC10897489

Tests used:
Assay in all cases: ITC
[1] = molecular target: GST-NSP3 1-181 (SARS-CoV-2)
[2] = molecular target: His-NSP3 1-181 WT (SARS-CoV-2)
[3] = molecular target: FXR1 215-360 (UniProt P51114); conditions: reference: unphosphorylated UBAP2L 243-270 peptide
[4] = molecular target: FXR1 215-360 (human)

| Substance | Kd [4] [µM] | stoichiometry N [4] | other results |
| --- | --- | --- | --- |
| FXR1 215-360 (domain or fragment) | – | – | Kd [1]: 2.26 µM; stoichiometry N [1]: 0.9; Kd [2]: 2.9 µM |
| UBAP2L 243-270 (from UniProt Q14157) pS254 peptide | – | – | binding against the reference ([3]; sites S254): lost |
| UBAP2L 243-270 (from UniProt Q14157) pS262 peptide | – | – | binding against the reference ([3]; sites S262): lost |
| UBAP2L 243-270 (from UniProt Q14157) pT246 peptide | – | – | KD ([3]; sites T246): stronger; reference 8.5 |
| UBAP2L 243-270 peptide (from UniProt F8W726 243-270) | 8.53 | 0.96 | – |
| UBAP2L 243-270 peptide, phosphorylated on Ser254 (from UniProt F8W726 243-270) | 25.5 | 0.92 | – |
| UBAP2L 243-270 peptide, phosphorylated on Thr246 (from UniProt F8W726 243-270) | 3.66 | 0.9 | – |
